Data as given in US11781164B2, “Demethylation of reticuline and derivatives thereof with fungal cytochrome P450” (priority 2017, dated 2023).

Each molecule was assayed on thebaine (assay: Demethylation of thebaine by new cytochrome P450 fungal and plant homologs co-expressed with CPRs in S. cerevisiae). Conditions: 0.5 mM thebaine, SC or DELFT media pH 7, 72 h, 30° C.; co-expressed with Cel_CPR_co, Tp_CPR_5866, Tp_CPR_DN10898 or POR1.

| Molecule | Northebaine production |
| --- | --- |
| CYPDN31: cytochrome P450 homolog A0A291C3B2 from Absidia caerulea, codon-optimized (protein, listed as Absidia caerulea) MLTEYIHHFINNFDQKKTMDQLQTMVSSKEGMIGLATAAVLMSGAAVYKSTRIERGCPQVPNQSYFMGSTKEYRNNPAAFIEKWEKELGPVYGAYLFGQYTTVVSGPQVREVFLNDDFDFIAGIRRDFDTNLLSNGGDLRDLPVHKFAGSIKKNLSPKLPFYTSRVIEHLKIGLKEFCGVVPDEGKEFDHVYPLVQHMVAKASASVFVGPELAKNEQLIDSFKNMVLEVGSELAPKPYLEFFPNLMRLRMWFIGKTSQKVKRHRDQLRAALAPQVEYRLKAMKENDSNWDRPNDFLQDILESGDIPAHVDVTDHCCDWMTQIIFAALHTTSENGTLSFYRLLDNPKVLEDLLEEQNQVLEDAGYDSSVGPEVFTREILNKFVKMDSVIRETSRLRNDYIGLPHKNISSKTITLSGGAMIRPGERAYVNAYSNHRDGTIQKVTDNLKSFEPYRFVNQDRNSTKIGEDFIFFGMGKHACPGRWFAIQEIKTIIAMMIRSYQLSALGPVTFPTDDYSRIPMGRFKIVPRK | + |
| CYPDN34: cytochrome P450 homolog A0A068SBP8 from Lichtheimia corymbifera, codon-optimized (protein, listed as Lichtheimia corymbifera) MYKAFLDNGIVSSIISTLDNKDISVFLNDPNHAKTRSVALVSFCTVIAAYALSRSRSHSKDKDTPMVPYTWPLIGSSREYRKDPEAFIKKWSSELGDVYKVHLFGRIQTVVSGKHVYCLQKDFDFQQGMSKTFDIWLLLDAPLGGRFTLDKIRHATIKFTRTKMLTNTPCVVKQLIAAEHEMIGDAQTPSEIANLYPLMEHLVAIASATNFVGPGLTKDKDLVETYKHLAVDVGSELGDGNEFLEAFPWISRLRMWYLGKYGNSVDKHRKRLLRAMKPIIDERLAAAENGIENPQDFIQDIIEESEITSGDPDKYILAVRWILVMIASAGHTTTENTTIILYRILQHPEVIDELLEEQRQVLEKHHGPDVKDNEDLATLFTGEVIKDLVKLDSVCRETMRLRSFYIDLPHTYVGKSPLALTNTCTIKPGEDVLLNMWLNHNRTAMQYDGLGDYNEFKPFRFVGLDRSSTKLGGDFLLFGLGTHACPGRWFAMHQTKTILSMLLRRYQITPQETIVFPIGNRSHVPSGKVTFQKRQ | + |
| CYPDN35: cytochrome P450 homolog A0A1X2GSL0 from Hesseltinella vesiculosa, codon-optimized (protein, listed as Hesseltinella vesiculosa) MLTQYLQFAADRLGQKKTLDQLQAVVTSKQGVVGITTAVALIALANHFRSPKIDRGCPQVEGKGWFGYATEEFRENPGKFLSEWHEKLGPVYGVKIFGHYATVVSGPYVREVFLDDRFSFIAAITKLFDPNLMTDSGHSSEQTAKNAADSIKRFLSPNLKHYTPRVIEHLNLGIEDWCGEVPAEGIEIENAFPFLQHLVARASASVFVGIELAKNEELVDSFQNMVSNISSGLKPKPWLEYFPSLTKLGMYMIGKTNPAVKRHRTQMANALRPEVDRRLKAMASNDTNWDRPDDMLQHILESYPAPEGLDVITYLINWMTQLIFAALHTTSENGKVVLYRLLQHPEVMEELYAEQNEVLAAAGYDESAGPEVFDREMLNKFVKLDSAVREACRLKNEFVGLPHENTTDKTLTLSNGAVILPGEFVYINQFVNHRDPELQAAIDDVHQFKPFRFVGTDHNAAKVSEGFVFFGMGRHACPGRWFAIQEIKTIVSLLLRKYKVEPIDPIVFSNQERDAFPIGPCRIRLTPRKAL | + |
| CYPDN4: cytochrome P450 homolog I1CCX6 from Rhizopus delemar, codon-optimized (protein, Rhizopus delemar) MVKSFLKAESPTDRYKRIIHPVASKGNGFYVSKVPFLWAVYVTNPVVAKQVLLKSDIFPKNHAVFHQIGKDSPFTQFLGLDNVALSNGDVWKKQRKVMNPAFHRSLPIKTMASVVNTLFSVIDNSDGPVLITSAMQNFTLDVLGLAIFGFEFKALQGDPDNWTKTYKTVIESLFDPVMNVFATFDTLLTWVYPKRRECSVAISKMNLKFDELAKQKRAEVKSGAYANVPDHDKDLLTLMLEAMEKGEALTSQDELRHNIAVFFLAGHGTTAHTLSFCFYHLAKNKHIQRKLREEIISVLGDEPVDIVPSLEQMKHMKYMNLVIKENLRMNTPADTLFTRDTVEDINLAGHIIPKDTAISIDINAIHHDPKYWHNPEHFIPERFAEGGEQESHEGLTWLPFSNGSRQCIGMNFSLAEQRLVLAMLVRKYEIDIPKDSIHYERILFDRPGNIAPLSLGLTFTKRY | − |
